Measurements as given in patent US20030181404A1 (BETH ISRAEL DEACONESS MEDICAL CENTER, published 2003).

Key:
[1] = target: T1, ErbB-4 (human (human breast cancer cell line), UniProt Q15303 26-1308, limits assumed); assay: co-immunoprecipitation from HRG-stimulated Flag-CHK MCF-7 lysates
T1 construct: also called p180 ErbB-4

[2] = target: T2, ErbB-3 (human (human breast cancer cell line), UniProt P21860 20-1342, tyrosine-phosphorylated upon HRG stimulation (sites not given)); assay: co-immunoprecipitation with anti-CHK antibody from HRG-stimulated Flag-CHK MCF-7 lysates, anti-ErbB-3 immunoblot
T2 construct: also called p180 ErbB-3
T2 sequence (P21860 20-1342 limits assumed): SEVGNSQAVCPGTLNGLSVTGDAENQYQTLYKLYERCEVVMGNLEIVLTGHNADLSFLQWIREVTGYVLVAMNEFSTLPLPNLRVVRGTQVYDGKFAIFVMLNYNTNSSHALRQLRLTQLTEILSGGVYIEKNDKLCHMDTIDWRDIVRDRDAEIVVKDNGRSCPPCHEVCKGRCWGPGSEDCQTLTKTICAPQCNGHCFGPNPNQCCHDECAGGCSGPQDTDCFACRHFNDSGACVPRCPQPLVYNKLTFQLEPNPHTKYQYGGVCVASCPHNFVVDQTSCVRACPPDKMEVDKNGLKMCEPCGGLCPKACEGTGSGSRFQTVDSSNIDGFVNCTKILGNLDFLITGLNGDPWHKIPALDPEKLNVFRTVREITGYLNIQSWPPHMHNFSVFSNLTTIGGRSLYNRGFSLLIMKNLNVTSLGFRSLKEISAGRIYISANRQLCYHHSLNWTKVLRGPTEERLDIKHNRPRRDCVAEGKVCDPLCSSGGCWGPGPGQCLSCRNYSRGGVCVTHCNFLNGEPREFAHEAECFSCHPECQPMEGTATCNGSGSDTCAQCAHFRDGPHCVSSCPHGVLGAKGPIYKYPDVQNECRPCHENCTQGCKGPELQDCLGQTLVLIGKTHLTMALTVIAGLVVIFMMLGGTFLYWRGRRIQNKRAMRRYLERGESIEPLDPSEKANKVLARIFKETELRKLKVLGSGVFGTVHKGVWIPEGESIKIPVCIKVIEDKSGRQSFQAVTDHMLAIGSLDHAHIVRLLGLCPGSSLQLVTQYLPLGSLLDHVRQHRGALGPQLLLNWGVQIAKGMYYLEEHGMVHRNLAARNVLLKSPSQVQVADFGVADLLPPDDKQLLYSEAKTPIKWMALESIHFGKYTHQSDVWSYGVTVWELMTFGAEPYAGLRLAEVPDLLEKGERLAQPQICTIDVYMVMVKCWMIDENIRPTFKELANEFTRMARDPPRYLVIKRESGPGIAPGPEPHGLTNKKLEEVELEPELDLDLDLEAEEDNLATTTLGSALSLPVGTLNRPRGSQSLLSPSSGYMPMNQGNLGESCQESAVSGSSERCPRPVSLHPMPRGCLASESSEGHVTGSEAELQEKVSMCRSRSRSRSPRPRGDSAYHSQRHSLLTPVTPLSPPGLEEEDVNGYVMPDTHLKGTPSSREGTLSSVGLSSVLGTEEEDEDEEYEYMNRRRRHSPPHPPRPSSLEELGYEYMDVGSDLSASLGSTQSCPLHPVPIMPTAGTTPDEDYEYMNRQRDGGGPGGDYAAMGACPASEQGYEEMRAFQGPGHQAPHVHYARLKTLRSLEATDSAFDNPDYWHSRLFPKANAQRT

[3] = target: EGF receptor (EGF-R, ErbB-1) (human (human breast cancer cell lines), UniProt P00533 25-1210); assay: co-immunoprecipitation with anti-CHK antibodies from EGF-stimulated Flag-CHK MCF-7 lysates, immunoblot

Measured: binding result

T1 sequence (Q15303 26-1308 limits assumed): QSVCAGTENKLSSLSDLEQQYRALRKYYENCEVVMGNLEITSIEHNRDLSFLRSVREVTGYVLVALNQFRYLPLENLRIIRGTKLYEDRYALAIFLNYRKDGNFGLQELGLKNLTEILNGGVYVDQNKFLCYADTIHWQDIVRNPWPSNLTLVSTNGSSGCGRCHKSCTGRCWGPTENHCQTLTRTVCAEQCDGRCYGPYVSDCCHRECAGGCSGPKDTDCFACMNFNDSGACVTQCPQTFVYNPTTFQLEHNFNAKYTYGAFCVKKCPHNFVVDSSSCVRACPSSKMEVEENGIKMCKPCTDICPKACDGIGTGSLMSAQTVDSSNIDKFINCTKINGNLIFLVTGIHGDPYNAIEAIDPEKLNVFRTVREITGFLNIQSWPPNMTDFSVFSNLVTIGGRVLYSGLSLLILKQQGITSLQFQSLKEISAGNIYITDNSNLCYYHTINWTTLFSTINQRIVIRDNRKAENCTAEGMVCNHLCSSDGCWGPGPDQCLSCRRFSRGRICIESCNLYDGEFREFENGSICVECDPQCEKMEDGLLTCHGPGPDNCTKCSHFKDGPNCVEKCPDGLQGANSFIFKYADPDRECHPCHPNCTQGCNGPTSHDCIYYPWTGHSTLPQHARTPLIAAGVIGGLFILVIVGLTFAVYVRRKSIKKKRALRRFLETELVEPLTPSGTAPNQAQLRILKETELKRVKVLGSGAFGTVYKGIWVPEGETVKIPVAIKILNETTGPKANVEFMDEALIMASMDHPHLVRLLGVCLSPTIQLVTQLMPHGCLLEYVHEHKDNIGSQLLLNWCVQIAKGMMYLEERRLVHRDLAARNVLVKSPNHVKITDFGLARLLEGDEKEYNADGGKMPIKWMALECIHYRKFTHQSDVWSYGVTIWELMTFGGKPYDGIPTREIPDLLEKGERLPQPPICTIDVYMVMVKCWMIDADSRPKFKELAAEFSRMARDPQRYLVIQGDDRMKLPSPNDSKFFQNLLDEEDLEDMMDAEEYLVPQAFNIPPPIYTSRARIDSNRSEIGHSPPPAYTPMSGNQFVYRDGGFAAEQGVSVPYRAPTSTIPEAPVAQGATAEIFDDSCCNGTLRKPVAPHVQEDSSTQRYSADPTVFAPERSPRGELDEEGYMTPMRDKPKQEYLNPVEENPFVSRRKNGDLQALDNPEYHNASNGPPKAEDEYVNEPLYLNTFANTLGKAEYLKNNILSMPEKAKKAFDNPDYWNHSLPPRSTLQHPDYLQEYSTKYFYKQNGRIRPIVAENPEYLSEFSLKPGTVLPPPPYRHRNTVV

B1: Flag-CHK (Flag epitope-tagged CHK expressed in MCF-7 cells from pCDNA3 neo) (enzyme)
chain: DYKDDDDKMAGRGSLVSWRAFHGCDSAEELPRVSPRFLRAWHPPPVSARMPTRRWAPGTQCITKCEHTRPKPGELAFRKGDVVTILEACENKSWYRVKHHTSGQEGLLAAGALRDGEALSADPKLSLMPWFHGKISGQEAVQQLQPPEDGLFLVRESARHPGDYVLCVSFGRDVIHYRVLHRDGHLTIDEAVFFCNLMDMVEHYSKDKGAICTKLVRPKRKHGTKSAEEELARAGWLLNLQHLTLGAQIGEGEFGAVLQGEYLGQKVAVKNIKCDVTAQAFLDETAVMTKMQHENLVRLLGVILHQGLYIVMEHVSKGNLVNFLRTRGRALVNTAQLLQFSLHVAEGMEYLESKKLVHRDLAARNILVSEDLVAKVSDFGLAKAERKGLDSSRLPVKWTAPEALKHGFTSKSDVWSFGVLLWEVFSYGRAPYPKMSLKEVSEAVEKGYRMEPPEGCPGPVHVLMSSCWEAEPPAGHPSANWPRSWPGSYAVQVPQPPSQGRTPTVHLAPKPGALTPPGGPWPQRTERVESAAWGH
notes: An initiator Met stands before the Flag tag; also called intact CHK
no binding: all assays above
